Test results reported in a protein production outcome set (Wang et al. 2014).

Assay: label from the status in PepcDB records
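Further: failed if final PepcDB status was selected cloned or expressed and not failed if soluble or beyond.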

**Q.** With “MGTIESYLTNSYNYIIFNFKKLCIGGLMSAIVGAMSGVTTAFIDLFMERANYDIMHIIMSFLIYFGIIFIIGLIVSAIIGGYNVRIMKTTVEGLNVAPDWNNITDLLYRGILYIVGLVLLNIIFYFIPAILFVFGIFSLYISKIIGAFLIIISILIFIISVISLWLYSKLAEVNYSVKGFYGFFEFKEIFKMIGIRYIILVIIIAIINFIISLIVVLPLNIIDIFISYSALANSILTIIYISIKGISYALSTFVDFYLGVFSIRAVALYYKDRKGIT” as the sequence, how does the protein production read?
**A.** Its protein production is “failed”.

**Q.** For “MALPLSQLPQEIIREVRGRKGLAFLAFVIVSFAVLGAGFVWPYKYQSETIIFVDDRNIIAPLMEGRAVATEINDRTSAAKELLMSRSLIEKVALDPEIYPDAPSDPAALEYRIANIRSGLSVRPRGDSYFSIGFSSTSQMEAFRVAQKLGQVFIEETKDRKRAESRNAYDFIDKQVKSYEQQLAQAENRLKEFLSENTDGTEQEANARMAQLRNQLELAELEKKELETRAASLQSQLGGIRPTITQGRTEDAYRERIRILEERLDSLRLQYHDTYPDIVILREQLAELRKQRDQAAERPTDVSSLEGEEAVNPLYQELRANLSTTRADMATVDTRITSLSRLLEQQAKRMERIQANKAQYSELTRDMEVNREIYDDLLKRREKARVSMHLDIEGQGLNYRINETAQFPRTPSGPQFSMFAAAGLFLGLAAPFGAVAGLLQVDPRIRARKQLEEDIGLPVLVEIPEVRTPYEKRRDRKVTLLIGIFAVLTVTVYVTIVVLAQMGVI”, which protein production is on record?
**A.** The protein production was “failed”.

**Q.** With “MGKEFFLQHDIVIMYSILFVFIIILKMQFFTWFGMLACMFGIVFYTLNEYMTHRFLFHIKPPKNTFLLKMLRRLHYDHHVYPDDLKLLFLPVWFSIPSFTIYLLIAYGITKSVTITLSFGIGMIIMLLVYEWKHYIAHRPIRPVTKFGRWLKKQHILHHYKNEKFWFGVSNPVFDFIFGTLKDGKDVELSETARNLEKEKKTKVVR” as the sequence, how does the protein production read?
**A.** The protein production was “failed”.

**Q.** Which protein production does the source give for “MASYDQISKNNWRYRISLGKNAETGKYEYISKTGFKRKSDAKHQAEMIGRQLRNGDYIAPSSSTFKQVADDWLKQYANDVKVSSVRAREKAIQHAIERFNTKPIQTIKKHDYQRFVDDISAQYSKNYVDSIVASTNMIFKYAYDTRLIKAMPSEGIKRPKKKVSVEELEDIEIHKKFLEKDELFQFLKVAKYHHSPQNSFEVFTTLAYTGMRAGELLALKWSDIDFENNTISITKTYYNPNNNKKHYQILTRKTESSIGKITVDPHVIQLLKDYKVNVQDTWKNELYVDNNFVFTDVNGYPLVIKKLQLWIKAILKKTDITNKQISTHSFRYTHYALLIEAGVHIKEIQERLRHKDINTTMNIYAKITNSYKKDASQKFSKLMENVSKGLF” here?
**A.** The protein production was “failed”.

**Q.** With “MRGANERKTERARGLRQSDNDAEALLWSELRDRRLNGFKFVRQVAVGPYFADFACRDERLVVEVDGSQHQIGSGDARRDKFMVMNGWSVLRFWNTDIFNDRAAVLETIVAVLEKRLVREVRSADLTFIPGEKKR” as the sequence, how does the protein production read?
**A.** The protein production was “not failed”.

**Q.** Which protein production does the source give for “MRTTHSPATAAGRTLGRVLKAVLSLLVLAAAVAGLPLLLAWVTPAIWASSHDDLTHLLDRQDTGAAFLLLLVAVGWIGWAQFAFCAVRELIAQVGGRSWQAPRRLGASQRAAALLVGSILVLLPTSSALASDAHASPATTEARVPGQAPAPQTAEPDQTLPDSASTPASRTSYTVRATRPAQSLWGIAERELGDGERWREIAALNEGRTMVDGQVFRAHGFLQPGWQLEMPDTAAAAGGIRTQLGRAAPTAEGKNEHVVTVHSGDYLSKIAEEELGDGGEWPRLFKASRGKTQPDGLPAISDPDVIYAGQQVTVPGAQPDPHTPPRDGDNGDEAGSQETTPPATQKPDGKQKPGDDRRDEQAPAPGTTTAPAPESSAPSTPASRPAEQPGQEQGSPSATASATPRPGTSPAPSAAAPSATAEAPGSADSSPATTASETPPPAPAPAPASSPLNLRTVLGAGTLLAAAITGALALRRTLQRRRRTPGEKIAIASETSPAEAKLAAAAEPGGAARLDVALRTLAHQVAHEKAADLPPIRAARIGTRTVEVLPEGLARKPQAPFVAGQAGWWVLPAEAVLLDEETAREVPAPYPGLVTIGSTESGDLLLLNLPQVAALLLDGNPVHITEVCTSLALELGMSPWASEAEIVTIGFGEDLPQLLPTSRIAHMRHARHALRDLSERLLEAHQMPETSHQPYLLLCASTLDADLAWQFADIIDKAQHVPVTLIAPASAAAASFPDAEILNASLSKPQQFDYIGSEITVQRLEHAAYLQITTALAISAQPADPAEGPWEEVPHEPDTPQRPRPLDLAKPTQSGDGEKPVPASPFTAGTGDSEIYPALLAASTDPASLKLLPDPKAPGKAPAEPGTEPAEMTPDGRAPQKAAEATGRPQETPAAEAVGEDTQAQDLHAPEIRVLGPVEVTGVATTGHGPSQARLAALLYFRPGRSADVLCADMDPVSPWSTATLNARLQGLRRALGNDPAGNAYVPRRRSGDDPYELSEAVRCDWARFTQLAQRALPQGTAGLPDLEKALGLIRGRPFGTRPLPWAEPYQQEMSTRIIDVAHTVATYRTPTGPHHDLTAARQAIATGLDVDDSAELLYRDWMRIEHAAGNRAGLHTAITRIQDINRKIDCSLENETEQLINDLLGPTGGRARGR” here?
**A.** Its protein production is “failed”.

**Q.** For “MGEGGQRATPSVTKIVGGEMAARVRAFDWSKTPLGPREDWSPALRLATDIVLASNFPMALRWGPELVLIYNDGYAPALHERHPSALGQSFYDTTPEFQAALRELHQDILTGTSGGFAFERLPLKVLKNGVLEAAYFTVNYSPVPDETAPNGIGGVLVAAVEISQSVKAEQTLRATQERYQ”, which protein production is on record?
**A.** Its protein production is “failed”.

**Q.** With “MLINLGQRLENLRTLVGFLKAARAESLDRVIAIADSLNKTEIAAQSRRWMLSHPAVAQLAAENYAPARPALEALNQLPTGTLGQAYASLLLGQNLSPDDLQPAKPATNADEYIVERLRVTHDIAHVITGFGTDPASELGLQAFNLRQNRTPLAVLLIAGGLLKTIKEGRDPAPILRQVARGIELADKAELLVAQRWEDHWDWPLEQWRQVLNLPV” as the sequence, how does the protein production read?
**A.** The protein production was “failed”.

**Q.** With “MLNPSLDIISLMAYLTSSSLVGLKLLNFSINLFISSSFLTFLKSLKCSLILPISMPANSGILFTAVSFMLARSLAMSSFGVFSSIINLFTTIHLPYLAVKLI” as the sequence, how does the protein production read?
**A.** Its protein production is “failed”.

**Q.** With “HAATAAEPPTAPTPPTQPAEGPGGADYRHASVHQWHFGEGAREYWVFTPEQPVPGNAPLVIFLHGWSVMQPDLYRAWIDHIVRRGMVVVYPRYQPDLKTPNAAFLDNAAGALGDALRRLQAGELGVRPRLNQVAYLGHSAGGLLAANLAAASERLK” as the sequence, how does the protein production read?
**A.** The protein production was “failed”.

**Q.** For “MENSLRSTLLDIVKGCIATVALFIAYLELPVIGMLAGVVVPLPALLYDLKRGKWSGLAIVLASALIFMLIAGPAGALLYVLQAGIFSLALPRFLTMGGGPARALASAVAVTVAVITAAAVGYGVTRGVTVEGQVAESLQSSITQAIQLYEKSGVSGADLDELREGMEQAAKSLAQLYPSLFVVGIAMAGGLNLLLLQRFGRRLGLAVPGGSFGKYRNPDHLVWLPICAGFALLAGHDAVTTIALNVLVLTGFLYFIQGMAIIIHLFDRYAAPAFLRYLLYFLLFVQAYLVVAVALFGLLDLWGNFRRPRIPTNL”, which protein production is on record?
**A.** The protein production was “failed”.

**Q.** Which protein production does the source give for “MTTKAVLISSGVATVALLLKLSVPVAVDFSVSRAPILWSSLLSWLKPPYLYVVTNGIIITIVASSKYYRSHHDRDEEDEIVVYGGGGYKIQTEEPIVNQHQASPRILEVKDLDTGAHFGFVVANLEAEELESEAVTAVVFDDEEEEKKIIDSAATAEDEIEEELKSVIMVENSDLVESDVIPPPMMIESENLPPIEKPLVTSRFGHRKLMKASQEGGRALRVTKPKKNETLENTWKMITEGKSTPLTRQLYRRSDTFGRGDSGGVDGEVKPVYKKSDTFRDRTNYYQLAETAKVRKEPSLSQEELNRRVEAFIKKFNEEMKLQRMESLRQYKEITSRGV” here?
**A.** Its protein production is “failed”.

**Q.** With “MSRKILDRYIAKTVLSAIGLVTLMLVGLQIFILFVNQIDDLGRADYGIVQAGVFVLLQMPYQVYLFFPIASLLGCLVGLGVLANHSELVVMRAAGISIGQITGAVLKASLIVILLITSLGETIVPVMAHYANEYKVSALTGGQALLTPRGVWVRNGNDFVSIASVTHENTLRYVNQFRFDNQHNLKLARQISEVKYVNNSWIAYDVKQTEFAEDHTKAHHFDTLPWDVPVKPEILKITGTNPDEMTLHELNRYLREQQRNHQNVANYKFAFFQRITQPLNTMVMMILAIPFIFGPLRSSTMGSKLLVGAMVGFGFHILNRFFGPVSTVFQWPPELAAFSPTLIFSLIGIYLMRRVR” as the sequence, how does the protein production read?
**A.** Its protein production is “failed”.

**Q.** Which protein production does the source give for “MNIPAAEPRARMTLAEFHRLLADQHPFAQVLGIDVVDIGHGTARAVLPARDTHQRLGGIVAGPMLMGLADLTMYAAVVGATGQAGAVTANLTIHFLRKTSGAAVIADARVLKTGRLAMAEAILRCDGADEPVAHVVSAWAVPAP” here?
**A.** Its protein production is “failed”.

**Q.** Which protein production does the source give for “MTAENSATPDYRRNVGAVADALLAHPGPIVVLSHENPDGDALGSVLGLSRALRTLGKTVLAPMTVPHYLSFLPQPGELTAPLESWPQGALAAVLDVDNNDPVRVAGADLTQFDGPVVNVDHHGTNLRRADAGVVDPSKPAAAMMVADVIDALGAPWSEAVATPLMLGLNTDTGNFAFDSVSAETFECAARLRAHGARIGWLNDQMRQNPQSYYLLLREVLGKLEFLHGGRVVQTRVDEEMLARAGATWEQVENYVSMLRNAEGAQLAVMAKDYGDRVKFSLRSRGPVSAQNIAVALGGGGHVPAAGATVISSYAEARARLDAAIEAELARVDAQATAE” here?
**A.** Its protein production is “failed”.

**Q.** For “MDKTDSIDIDKQVNTDELFGHPKGLYICFATELWERFSFYGMKYLLLLYLTKYHLFSDGEGLEVLGSYAGLVYTLPVIGGMLADRYLGMKKSVIFGGILLCLGHLLMAVEGHQAVQYAAGTILTSDLTLNNGAVLSAGTLLTETIKIQDLAALNVFYFALSLIVVGVGFLKPNISTIVGQLYSKDDPRRDSGFTIFYMGINLGSFAATIICVYLGETYGWRYGFGAAGIGMLFGLVTFTKGLKYLRGLAEPPDVAVLSEKVWGLISREYLIYLTAILSLSVFWLVIQHEPVVFAAQQVLLVVSGVGLIGYAALKGSREEFQQMLVLMVLIGSTIVFWALFEQAAGSMTLFADRVVERNIAGIEITAGQFGALNAGFIIMLALPFAALWVWLEKFRLNPNIPIKFALGIIQAGLGFGVLVFGAQFPDEAGKISLWWLVLAYLIHTTGELCLSPVGLSAVTKLAIHRVVGLSMGVWFLATALSETLAMRLGKLAAIDTQGGELNSVSDNLIIYTQLFEFLMWIGIGTGVVVLLISPLLKRGMHGVR”, which protein production is on record?
**A.** Its protein production is “failed”.

**Q.** With “MGHHHHHHSHMATGQDRVVALVDMDCFFVQVEQRQNPHLRNKPCAVVQYKSWKGGGIIAVSYEARAFGVTRSMWADDAKKLCPDLLLAQVRESRGKANLTKYREASVEVMEIMSRFAVIERASIDEAYVDLTSAVQERLQKLQGQPISADLLPSTYIEGLPQGPTTAEETVQKEGMRKQGLFQWLDSLQIDNLTSPDLQLTVGAVIVEEMRAAIERETGFQCSAGISHNKVLAKLACGLNKPNRQTLVSHGSVPQLFSQMPIRKIRSLGGKLGASVIEILGIEYMGELTQFTESQLQSHFGEKNGSWLYAMCRGIEHDPVKPRQLPKTIGCSKNFPGKTALATREQVQWWLLQLAQELEERLTKDRNDNDRVATQLVVSIRVQGDKRLSSLRRCCALTRYDAHKMSHDAFTVIKNCNTSGIQTEWSPPLTMLFLCATKFSASAP” as the sequence, how does the protein production read?
**A.** Its protein production is “failed”.

**Q.** For “KTGQLLPKSPAARYEAIQWLMFQMGGVGPMFGQLGFFHKFAGKDYEDKRPRDRYVAESRRLLQVLEGRMAGRAWIMGDEYTIADIAIWPWVRNLVGFYGAGELVGFDDFPNIQRVVQAFAERPAVARGLAIPARD”, which protein production is on record?
**A.** The protein production was “failed”.
